{
  "source": "patent US20120177704A1",
  "target": "human interleukin 12 (human) (UniProt P29459)",
  "sequence (P29459 23-219 limits assumed, chain 1 of 2)": "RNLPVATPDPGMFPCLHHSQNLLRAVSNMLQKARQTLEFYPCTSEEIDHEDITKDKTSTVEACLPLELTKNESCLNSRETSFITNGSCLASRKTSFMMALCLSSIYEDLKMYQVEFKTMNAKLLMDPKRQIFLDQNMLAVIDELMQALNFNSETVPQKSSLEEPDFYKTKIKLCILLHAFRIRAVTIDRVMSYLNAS",
  "sequence (P29460 23-328 limits assumed, chain 2 of 2, further chain)": "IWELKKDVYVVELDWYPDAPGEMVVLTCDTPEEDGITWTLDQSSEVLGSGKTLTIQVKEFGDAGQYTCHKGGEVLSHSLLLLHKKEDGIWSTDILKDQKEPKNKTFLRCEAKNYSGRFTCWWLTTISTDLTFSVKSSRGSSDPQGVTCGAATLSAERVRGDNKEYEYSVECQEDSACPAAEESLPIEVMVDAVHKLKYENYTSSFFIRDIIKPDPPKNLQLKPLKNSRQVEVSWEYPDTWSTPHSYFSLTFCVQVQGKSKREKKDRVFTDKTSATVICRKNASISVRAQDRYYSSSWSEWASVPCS",
  "experiment": "cell-based or functional assay",
  "data": [
    {"substance": "monoclonal antibody ABT-874", "values": [
      {"measurement": "relative biological activity (mean IC50 of reference standard / IC50 of sample x 100%); inhibition of IL-12-stimulated IFN-γ production of NK-92 cells, IFN-γ measured by ELISA", "value": 98, "unit": "%"}
    ]}
  ]
}
